Blank lines part the entries; values can stand above or below the binder they belong to.
Target: endogenous Galectin-9 on CRL-2134 cells (human) (UniProt O00182)
Experiment: cell-based binding assay, flow cytometry on CRL-2134 cells

Sequence of endogenous Galectin-9 on CRL-2134 cells (human) (O00182 whole entry): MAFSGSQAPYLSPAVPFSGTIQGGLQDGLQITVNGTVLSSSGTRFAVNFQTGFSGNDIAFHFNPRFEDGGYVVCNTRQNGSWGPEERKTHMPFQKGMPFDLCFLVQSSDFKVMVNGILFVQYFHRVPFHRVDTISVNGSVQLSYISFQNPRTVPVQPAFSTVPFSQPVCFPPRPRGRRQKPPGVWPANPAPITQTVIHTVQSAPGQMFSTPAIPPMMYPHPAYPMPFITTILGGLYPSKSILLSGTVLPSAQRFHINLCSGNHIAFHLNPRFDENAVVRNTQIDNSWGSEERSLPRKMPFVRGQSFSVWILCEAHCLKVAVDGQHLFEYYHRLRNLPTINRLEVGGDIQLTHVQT

Kd: 0.41 nM
B1: G9.2-17 hIgG1 (antibody, V domains shown)
VH: EVQLVESGGGLVQPGGSLRLSCAASGFTVSSSSIHWVRQAPGKGLEWVAYISSSSGYTYYADSVKGRFTISADTSKNTAYLQMNSLRAEDTAVYYCARYWSYPSWWPYRGMDYWGQGTLVTVSS
VL: DIQMTQSPSSLSASVGDRVTITCRASQSVSSAVAWYQQKPGKAPKLLIYSASSLYSGVPSRFSGSRSGTDFTLTISSLQPEDFATYYCQQSSTDPITFGQGTKVEIKR

Kd: 2.91 nM
B2: G9.2-17 mIgG1 (antibody, V domains shown)
VH: B1 VH
VL: B1 VL

Source: patent US20220340666A1
